Holding throughout (test): cell_activity
Data set [1] relates to MsCOMT_T02.1 TALE nuclease right monomer (synthetic construct). Conditions: value for nuclease pair; alfalfa protoplasts, 28 C, 2 days.
In data set [2] the test system is MsCOMT_T01.1 TALE nuclease left monomer (synthetic construct). Conditions: value for nuclease pair; alfalfa protoplasts, 28 C, 2 days; left site boundary inferred from 15 bp spacer.
Data set [3] deals with MsCOMT_T02.1 TALE nuclease left monomer (synthetic construct). Conditions: value for nuclease pair; alfalfa protoplasts, 28 C, 2 days.
In data set [4] the test system is MsCOMT_T03.1 TALE nuclease right monomer (synthetic construct). Conditions: value for nuclease pair; alfalfa protoplasts, 28 C, 2 days.
Data set [5] deals with MsCOMT_T03.1 TALE nuclease left monomer (synthetic construct). As to conditions: value for nuclease pair; alfalfa protoplasts, 28 C, 2 days.
Data set [6] deals with MsCOMT_T01.1 TALE nuclease right monomer (synthetic construct). Conditions: value for nuclease pair; alfalfa protoplasts, 28 C, 2 days.

“CTGGACCTGGTGCTCAA (double strand) [MsCOMT_T02.1 right half-site (top strand)]” came in with an activity (% mutation frequency) in data set [1] of 15.9.
As to “TTCAACAGGTGAAACTC (double strand) [MsCOMT_T01.1 left half-site]”, in data set [2], the activity (% mutation frequency) was found to be 12.6.
Consider “TGAACTTGATCTCTTAG (double strand) [MsCOMT_T02.1 left half-site]”, for which the activity (% mutation frequency) in data set [3] is 15.9.
As to “GCACCAGTTATGTTGGA (double strand) [MsCOMT_T03.1 right half-site (top strand)]”, the activity (% mutation frequency) in data set [4] amounted to 14.1.
In turn, “TTGCTTCTCAGCTACCA (double strand) [MsCOMT_T03.1 left half-site]” yielded an activity (% mutation frequency) in data set [5] of 14.1.
In turn, “ACATATCAGATGAAGAA (double strand) [MsCOMT_T01.1 right half-site (top strand)]” came in with an activity (% mutation frequency) in data set [6] of 12.6.

The values are drawn from patent US20200048648.
